± gives the standard deviation of the averaged measurements.
System: ATP
Assay: switch fluorescence ratio, 500 uM ATP over buffer (Cy3 cluster intensity, sum of 5 cycles each) (fold (ratio)); higher = stronger signal-on switching upon ATP binding; sequences stand for … in TCGTCGGCAGCGTCAGATGTGTATAAGAGACAGTTTTTTTTTTTTTTTTTTTTTTTTT…TC
Settings: aptamer strand: ATP DNA aptamer (quencher-CACCTGGGGGAGTATTGCGGAGGAAGG + anchor), 100 nM annealed; ATP concentration: 500 uM
Procedure, shortened: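 Imaging in selection buffer was followed by imaging after 15 min with 500 uM ATP at 22 °C, for Cy3-labelled switching-strand clusters annealed to 100 nM quencher-labelled ATP aptamer on a modified Illumina MiSeq flow-cell. Five of these buffer/ATP cycles ran, separated by NaOH stripping and re-annealing. The fluorescence ratio per cluster is summed target-cycle over summed buffer-cycle Cy3 intensity, averaged per switch-domain sequence; clusters outside 100-1000 RFU were removed.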
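Note: ATP exposure 15 min at 22 °C before imaging.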

TTTCTTACGC
switch fluorescence ratio: 1.07 ± 0.066

TTTCTTAGCT
switch fluorescence ratio: 1.005 ± 0.0046

TTTCTTATGA
switch fluorescence ratio: 0.971 ± 0.025

TTTCTTATTG
switch fluorescence ratio: 1.031 ± 0.0085

TTTCTTGGGT
switch fluorescence ratio: 1.04 ± 0.17

TTTCTTTAAA
switch fluorescence ratio: 1.01 ± 0.019

TTTCTTTATT
switch fluorescence ratio: 1.05 ± 0.063

TTTCTTTGAA
switch fluorescence ratio: 0.977 ± 0.018

TTTGAAAAGT
switch fluorescence ratio: 1.022 ± 0.0028

TTTGAAATTA
switch fluorescence ratio: 0.9769 ± 0.003

TTTGAAGGAA
switch fluorescence ratio: 0.986 ± 0.017

TTTGAAGGGG
switch fluorescence ratio: 1.01 ± 0.035

TTTGAATAAG
switch fluorescence ratio: 0.995 ± 0.023

TTTGACATTT
switch fluorescence ratio: 1.02 ± 0.03

TTTGACCTGG
switch fluorescence ratio: 0.981 ± 0.043

TTTGACGAAT
switch fluorescence ratio: 1.012 ± 0.0081

TTTGACTTGT
switch fluorescence ratio: 1.005 ± 0.0045

TTTGAGAGAT
switch fluorescence ratio: 0.991 ± 0.029

TTTGAGATAC
switch fluorescence ratio: 1.39 ± 0.38

TTTGAGATCT
switch fluorescence ratio: 0.989 ± 0.027

TTTGAGATGG
switch fluorescence ratio: 0.99 ± 0.024

TTTGAGCATA
switch fluorescence ratio: 1.06 ± 0.042

TTTGAGCGTT
switch fluorescence ratio: 1.01 ± 0.04

TTTGAGCTAT
switch fluorescence ratio: 1.1 ± 0.029

TTTGAGGATT
switch fluorescence ratio: 1 ± 0.027

TTTGAGTAAT
switch fluorescence ratio: 1.027 ± 0.0017

TTTGAGTGAC
switch fluorescence ratio: 1.01 ± 0.031

TTTGAGTGGG
switch fluorescence ratio: 0.994 ± 0.025

TTTGATATGG
switch fluorescence ratio: 0.999 ± 0.038

TTTGATCTTT
switch fluorescence ratio: 1.01 ± 0.035

TTTGATGAGC
switch fluorescence ratio: 1.01 ± 0.034

TTTGATGCCG
switch fluorescence ratio: 0.973 ± 0.03

TTTGATGTTA
switch fluorescence ratio: 0.981 ± 0.034

TTTGATTAT
switch fluorescence ratio: 0.996 ± 0.012

TTTGATTTGT
switch fluorescence ratio: 1.042 ± 0.0087

TTTGATTTTT
switch fluorescence ratio: 0.984 ± 0.024

TTTGCAAAGT
switch fluorescence ratio: 1.005 ± 0.0069

TTTGCAACAG
switch fluorescence ratio: 0.986 ± 0.023

TTTGCACCCT
switch fluorescence ratio: 1.03 ± 0.041

TTTGCAGCAT
switch fluorescence ratio: 1.13 ± 0.22

TTTGCAGGCA
switch fluorescence ratio: 1.03 ± 0.011

TTTGCAGGGC
switch fluorescence ratio: 1.05 ± 0.012

TTTGCATCTC
switch fluorescence ratio: 1.03 ± 0.044

TTTGCCACTT
switch fluorescence ratio: 0.991 ± 0.011

TTTGCCAGGA
switch fluorescence ratio: 0.997 ± 0.0063

TTTGCCATAG
switch fluorescence ratio: 1.02 ± 0.022

TTTGCCTCGT
switch fluorescence ratio: 1.04 ± 0.025

TTTGCGCGTT
switch fluorescence ratio: 0.985 ± 0.018

TTTGCGCTCG
switch fluorescence ratio: 0.968 ± 0.037

TTTGCTCGCC
switch fluorescence ratio: 1.01 ± 0.04

TTTGCTGAAC
switch fluorescence ratio: 1.065 ± 0.0086

TTTGCTTCCG
switch fluorescence ratio: 1.1 ± 0.084

TTTGCTTTTA
switch fluorescence ratio: 1.04 ± 0.023

TTTGGAAGGA
switch fluorescence ratio: 0.998 ± 0.04

TTTGGAAGT
switch fluorescence ratio: 0.991 ± 0.028

TTTGGAGGTT
switch fluorescence ratio: 1.11 ± 0.2

TTTGGATAAA
switch fluorescence ratio: 1.04 ± 0.049

TTTGGCAATT
switch fluorescence ratio: 1.73 ± 0.57

TTTGGCCAGC
switch fluorescence ratio: 0.975 ± 0.051

TTTGGCGATT
switch fluorescence ratio: 0.962 ± 0.017

TTTGGCTAGT
switch fluorescence ratio: 1.01 ± 0.019

TTTGGCTGTA
switch fluorescence ratio: 0.97 ± 0.012

TTTGGGAAGT
switch fluorescence ratio: 1 ± 0.025

TTTGGGACTC
switch fluorescence ratio: 0.9731 ± 0.0023

TTTGGGCAGC
switch fluorescence ratio: 1.083 ± 0.0087

TTTGGGCCAT
switch fluorescence ratio: 1.04 ± 0.12

TTTGGGCTAT
switch fluorescence ratio: 1.021 ± 0.0064

TTTGGGGACT
switch fluorescence ratio: 0.984 ± 0.011

TTTGGGGCTT
switch fluorescence ratio: 1 ± 0.04

TTTGGGGGGC
switch fluorescence ratio: 1.05 ± 0.12

TTTGGGGTCT
switch fluorescence ratio: 1.01 ± 0.1

TTTGGGGTGG
switch fluorescence ratio: 0.974 ± 0.031

TTTGGGTCGG
switch fluorescence ratio: 0.993 ± 0.018

TTTGGGTGGT
switch fluorescence ratio: 1.09 ± 0.21

TTTGGGTTGC
switch fluorescence ratio: 0.982 ± 0.014

TTTGGTAATG
switch fluorescence ratio: 1.01 ± 0.021

TTTGGTAGAG
switch fluorescence ratio: 0.98 ± 0.018

TTTGGTCCCT
switch fluorescence ratio: 0.993 ± 0.016

TTTGGTGAGG
switch fluorescence ratio: 1.01 ± 0.02

TTTGGTGCCG
switch fluorescence ratio: 1.17 ± 0.23

TTTGGTGGCT
switch fluorescence ratio: 1.01 ± 0.015

TTTGGTGTAG
switch fluorescence ratio: 1.02 ± 0.015

TTTGGTTCGA
switch fluorescence ratio: 0.977 ± 0.012

TTTGGTTGTT
switch fluorescence ratio: 0.988 ± 0.019

TTTGGTTTAC
switch fluorescence ratio: 1.01 ± 0.019

TTTGGTTTT
switch fluorescence ratio: 0.988 ± 0.027

TTTGTAAAAA
switch fluorescence ratio: 0.9829 ± 0.0094

TTTGTAAAAG
switch fluorescence ratio: 0.977 ± 0.033

TTTGTAAGGG
switch fluorescence ratio: 0.986 ± 0.021

TTTGTAAGTG
switch fluorescence ratio: 0.988 ± 0.018

TTTGTACATT
switch fluorescence ratio: 1.01 ± 0.011

TTTGTACTCG
switch fluorescence ratio: 1.01 ± 0.011

TTTGTAGGCC
switch fluorescence ratio: 0.989 ± 0.03

TTTGTAGTCA
switch fluorescence ratio: 1.05 ± 0.083

TTTGTATACA
switch fluorescence ratio: 1.01 ± 0.015

TTTGTCGTTT
switch fluorescence ratio: 1.03 ± 0.055

TTTGTCTGTT
switch fluorescence ratio: 1.03 ± 0.038

TTTGTCTTC
switch fluorescence ratio: 0.95 ± 0.015

TTTGTGAGCA
switch fluorescence ratio: 1.06 ± 0.08

TTTGTGATTG
switch fluorescence ratio: 0.985 ± 0.094

TTTGTGGACT
switch fluorescence ratio: 1.01 ± 0.031

TTTGTGGGAG
switch fluorescence ratio: 0.998 ± 0.02

TTTGTGGGTG
switch fluorescence ratio: 1.01 ± 0.019

TTTGTGGTAT
switch fluorescence ratio: 1.03 ± 0.047

TTTGTGGTCG
switch fluorescence ratio: 1.02 ± 0.031

TTTGTGGTTA
switch fluorescence ratio: 1.04 ± 0.056

TTTGTGGTTT
switch fluorescence ratio: 0.985 ± 0.043

TTTGTGTAGG
switch fluorescence ratio: 1.02 ± 0.049

TTTGTGTCGT
switch fluorescence ratio: 0.982 ± 0.053

TTTGTGTCTG
switch fluorescence ratio: 0.998 ± 0.012

TTTGTTACTA
switch fluorescence ratio: 1 ± 0.1

TTTGTTAGCG
switch fluorescence ratio: 1.01 ± 0.053

TTTGTTCAT
switch fluorescence ratio: 0.998 ± 0.028

TTTGTTCGTT
switch fluorescence ratio: 1.01 ± 0.029

TTTGTTGACC
switch fluorescence ratio: 1.02 ± 0.013

TTTGTTGCTT
switch fluorescence ratio: 0.989 ± 0.012

TTTGTTGGGT
switch fluorescence ratio: 1 ± 0.022

TTTGTTGTGG
switch fluorescence ratio: 1.01 ± 0.048

TTTGTTTAGA
switch fluorescence ratio: 0.9917 ± 0.0069

TTTGTTTGTT
switch fluorescence ratio: 0.986 ± 0.02

TTTTAAAAAT
switch fluorescence ratio: 1.03 ± 0.056

TTTTAAAGCA
switch fluorescence ratio: 1.01 ± 0.03

TTTTAAATGA
switch fluorescence ratio: 1 ± 0.021

TTTTAACATA
switch fluorescence ratio: 1.02 ± 0.016

TTTTAACTAC
switch fluorescence ratio: 1.18 ± 0.15

TTTTAATGAT
switch fluorescence ratio: 0.983 ± 0.024

TTTTAATTAA
switch fluorescence ratio: 1.01 ± 0.044

TTTTACACCT
switch fluorescence ratio: 1.23 ± 0.2

TTTTACAGCG
switch fluorescence ratio: 1 ± 0.036

TTTTACAGGT
switch fluorescence ratio: 1.01 ± 0.028

TTTTACATTC
switch fluorescence ratio: 1.03 ± 0.056

TTTTACCATT
switch fluorescence ratio: 1.09 ± 0.061

TTTTACCCAA
switch fluorescence ratio: 1.04 ± 0.024

TTTTACCTTG
switch fluorescence ratio: 1.028 ± 0.01

TTTTACGGTA
switch fluorescence ratio: 1.12 ± 0.022

TTTTACGTGC
switch fluorescence ratio: 1.02 ± 0.05

TTTTACGTTG
switch fluorescence ratio: 0.995 ± 0.01

TTTTACTGCA
switch fluorescence ratio: 1.07 ± 0.073

TTTTACTTGC
switch fluorescence ratio: 1.0115 ± 0.00074

TTTTAGACAA
switch fluorescence ratio: 1.18 ± 0.17

TTTTAGAGCT
switch fluorescence ratio: 1.02 ± 0.018

TTTTAGAGGG
switch fluorescence ratio: 0.982 ± 0.034

TTTTAGATAT
switch fluorescence ratio: 0.98713 ± 0.00039

TTTTAGATCG
switch fluorescence ratio: 0.997 ± 0.016

TTTTAGGCGT
switch fluorescence ratio: 0.99 ± 0.013

TTTTAGGGAT
switch fluorescence ratio: 1.03 ± 0.021

TTTTAGGGGG
switch fluorescence ratio: 1 ± 0.038

TTTTAGGGTT
switch fluorescence ratio: 1.01 ± 0.027

TTTTAGTAGG
switch fluorescence ratio: 1.04 ± 0.091

TTTTAGTCT
switch fluorescence ratio: 1.01 ± 0.023

TTTTAGTCTA
switch fluorescence ratio: 0.9809 ± 0.0021

TTTTAGTGGG
switch fluorescence ratio: 1.01 ± 0.039

TTTTAGTTAA
switch fluorescence ratio: 1.01 ± 0.03

TTTTATACG
switch fluorescence ratio: 1.36 ± 0.51

TTTTATAGGT
switch fluorescence ratio: 0.998 ± 0.017

TTTTATATCC
switch fluorescence ratio: 0.963 ± 0.028

TTTTATGAGC
switch fluorescence ratio: 1.03 ± 0.045

Reference: the supplement of paper PMC10126150
